Test results: patent US20250188151A1, “C-JUN ANTAGONIST PEPTIDES” (The University of Bath, priority 2022, published 2025)
Substitutions are numbered along the chain they refer to. “Also recorded” adds a separate entry of the source. Where two headings read alike, the source gives them in different places. Numbered stars: 1 amine (or outer) side, 2 acyl side, 3 side chain; on linkers, the order of the positions; unused ones are H or OH. Bridge positions count the residues as written; N and C are the ends. Ends that are not written are not given here. mXylylene = c1cc(C[*:1])cc(C[*:2])c1

What was measured:
[1] = target: c-Jun bZIP (expressed in E. coli) (Homo sapiens) (UniProt P05412); test: cell_activity; conditions: TBS assay
[2] = target: T1, cJun bZIP/TRE DNA interaction (transcriptional block of TRE-mDHFR) (Homo sapiens, UniProt P05412, S292Y); test: Transcription Block Survival (TBS) assay: colony counting and growth competition in E. coli; assay type: cell-based; conditions: vs transcriptionally blocked cells (TRE-mDHFR + cJun bZIP)
T1 construct: expressed in transfected cells; host or cells: E. coli BL21 Gold carrying pES300d-TRE-mDHFR and pES230d-cJun bZIP
From the text: Library Construction and TBS Assay: Library inserts were produced using PCR fill-in reactions from synthesised primers (Sigma) with degenerate codons at the desired positions to produce the correct residue options. The library was subcloned using SacI and AscI sites into the pET24a plasmid containing A-FosW. The primers used were cJun-Hinge-Lib-F: 5′-[…] TATGCC-3′ (SEQ ID NO: 49) and cJun-Hinge-Lib_R: 5′-[…] GTTC-3′ (SEQ ID NO: 50). The library DNA was transformed into NEB 10-beta electrocompetent E. coli cells. The following equation was utilised to determine library coverage by the number of single colonies: E=100×(1−1/n)^m where E is the percentage of the library missing, m is the number of colonies collected and n is the library size. […] Library DNA quality was assessed by sequencing both the DNA pool and a number of single colonies to show degenerate codons in the correct positions in the pool and to show a diversity of library members from single colonies. The pool of library DNA was transformed into BL21 Gold cells already containing pES300d-TRE-mDHFR and pES230d-cJun bZIP.
Selective pressure is applied by growing the bacteria in M9 minimal media with TMP (2-4 μM) alongside ampicillin, kanamycin and chloramphenicol to maintain the required plasmids, and IPTG (1 mM) to induce protein expression. The library transformants were first plated out onto selective agar plates (2 μM TMP) and grown at 37° C. for 72-96 h. Optimisation experiments (FIG. 5) indicate that 4 μM TMP is optimum for selection however a lower stringency is used initially before selection is increased in later steps. Colonies from this first round of selection were pooled and serially grown in liquid culture at starting OD600 of 0.05 and grown at 37° C. with shaking at 200 rpm until the OD600 reached 0.6. TMP concentration was 2 μM in the first liquid culture passage before it was increased to the optimum 4 μM in subsequent passages. […] At each passage step, a sample of the culture was plated on LB agar (supplemented with antibiotics to maintain plasmids) to select and sequence individual colonies, and a DNA pool was also sequenced. This allows the occurrence of library members to be monitored as winner sequences are selected for. Assay Validation experiments utilised a modified assay methodology whereby overnight cultures from glycerol stocks of the Control Strains (Table 2) were diluted to OD600=0.5 and 50 μL was plated on a selective M9 minimal medium agar plate.
Transcription block survival (TBS) is an intracellular assay that utilises cell survival as a readout. […] This enzyme is absolutely essential for survival since it is required for the production of purines needed for DNA and amino acid synthesis. […]. We produced a mDHFR gene (FIGS. 2 and 3) by rational design to introduce 15 TRE sites into the coding DNA sequence to allow a robust cJun transcriptional block whilst minimising alteration to the expressed protein (TRE-mDHFR). In particular, the resulting TRE-mDHFR construct was produced via two silent and thirteen conservative mutations. […] The accessible surface areas of all other amino acid residues were calculated using the ‘Accessible Surface Area and Accessibility Calculation for Protein’ tool (http://cib.cf.ocha.ac.jp/bitool/ASA/). […]

[3] = target: cJun bZIP (Homo sapiens, UniProt P05412, S292Y); test: CD spectra and thermal denaturation of peptide/cJun heterodimers; conditions: for Tm (° C.) (CD): heterodimer with cJun bZIP, Example 1
[4] = target: T2, cJun bZIP (human, UniProt P05412 252-308, limits assumed); test: cell-based or functional assay
T2 chain: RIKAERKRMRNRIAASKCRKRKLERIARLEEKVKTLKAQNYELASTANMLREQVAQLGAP

[5] = target: T2, cJun bZIP; test: CD thermal denaturation
[6] = target: T2, cJun bZIP; test: cell-based or functional assay
[7] = target: T2, cJun bZIP; test: CD thermal denaturation, peptide 5 µM and c-Jun 5 µM
[8] = target: T2, cJun bZIP; test: ITC (PEAQ-ITC), peptide injected into cJun, one site model
[9] = target: T2, cJun bZIP; test: cell-based or functional assay
[10] = target: T3, HingeW (synthetic construct); test: CD, DNA spectrum unchanged; conditions: tags: C-terminal 6xHis
T3 chain: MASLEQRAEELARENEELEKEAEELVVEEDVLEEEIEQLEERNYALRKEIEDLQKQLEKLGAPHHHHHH

[11] = target: T4, A-FosW (synthetic construct); test: CD, DNA spectrum unchanged; conditions: tags: C-terminal 6xHis
T4 chain: T3 chain with V26E, V27Q, E29L, V31E, E33Q, E34A

[12] = target: T2, cJun bZIP
[13] = target: T2, cJun bZIP; test: CD spectra at 20 °C
[14] = test system: TRE DNA; test: CD control: peptide with TRE DNA; assay type: binding
Protocol: Circular Dichroism (CD): An Applied Photophysics Chirascan was used for CD measurements, with a 200 μL sample in a 1 mm path length CD cell. Protein/DNA samples were suspended in 150 mM potassium phosphate, 150 mM potassium fluoride and 5 mM TCEP at pH 7.4 and were equilibrated for 30 minutes before measurement. […] These scans were averaged and converted to molar residue ellipticities (MRE).

[15] = target: T2, cJun bZIP
[16] = target: T2, cJun bZIP; test: ITC, antagonist injected into cJun, one site model
[17] = not given; remark: listed apart in the source
[18] = target: cJun (Homo sapiens, UniProt P05412, S292Y); test: CD dimer exchange experiments; conditions: A-FosW mixed with preformed HingeW/cJun heterodimer
Protocol: Circular Dichroism (CD): An Applied Photophysics Chirascan was used for CD measurements, with a 200 μL sample in a 1 mm path length CD cell. Protein/DNA samples were suspended in 150 mM potassium phosphate, 150 mM potassium fluoride and 5 mM TCEP at pH 7.4 and were equilibrated for 30 minutes before measurement. […] These scans were averaged and converted to molar residue ellipticities (MRE). Thermal denaturation experiments were performed by measuring the ellipticity at 222 nm over a 1 to 90° C. gradient at 1° C. increments.

[19] = CD spectra and thermal denaturation of peptide-only samples (helicity, homodimer Tm)

Molecule: WT-mDHFR gene
- activity (fold reduction in colony count) ([1]; presumed nonspecific plasmid binding): 1.3

Molecule: MASTDTLQAETDQLEDEKYALQTEIANLLKEKEKLGAPHHHHHH [cFos LZ, human cFos leucine zipper domain construct]
- effect on TRE-mDHFR transcriptional block / colony numbers [2]: no significant increase in colony numbers; also recorded: unable to effectively dissociate the cJun bZIP from TRE DNA

Molecule: MASLDELQAEIEQLEERNYALRKEIEDLQKQLEKLGAPHHHHHH [FosW]
- effect on TRE-mDHFR transcriptional block / colony numbers [2]: no significant increase in colony numbers; also recorded: unable to effectively dissociate the cJun bZIP from TRE DNA
- Tm (° C.) (CD) [3]: 54 °C

Molecule: TRE-mDHFR gene (15 TRE sites)
- activity (fold reduction in colony count) ([1]; 4 uM TMP, 1 mM IPTG): 21

B1: HingeW peptide variant 23 (peptide)
peptide: Ac-EAEELVVEEDVLEEEIEQLEERNYALRKEIKDLQDQ-NH2
modifications: lactam 31-35
SMILES: CC[C@H](C)[C@H](NC(=O)[C@H](CCC(=O)O)NC(=O)[C@H](CCCCN)NC(=O)[C@H](CCCNC(=N)N)NC(=O)[C@H](CC(C)C)NC(=O)[C@H](C)NC(=O)[C@H](Cc1ccc(O)cc1)NC(=O)[C@H](CC(N)=O)NC(=O)[C@H](CCCNC(=N)N)NC(=O)[C@H](CCC(=O)O)NC(=O)[C@H](CCC(=O)O)NC(=O)[C@H](CC(C)C)NC(=O)[C@H](CCC(N)=O)NC(=O)[C@H](CCC(=O)O)NC(=O)[C@@H](NC(=O)[C@H](CCC(=O)O)NC(=O)[C@H](CCC(=O)O)NC(=O)[C@H](CCC(=O)O)NC(=O)[C@H](CC(C)C)NC(=O)[C@@H](NC(=O)[C@H](CC(=O)O)NC(=O)[C@H](CCC(=O)O)NC(=O)[C@H](CCC(=O)O)NC(=O)[C@@H](NC(=O)[C@@H](NC(=O)[C@H](CC(C)C)NC(=O)[C@H](CCC(=O)O)NC(=O)[C@H](CCC(=O)O)NC(=O)[C@H](C)NC(=O)[C@H](CCC(=O)O)NC(C)=O)C(C)C)C(C)C)C(C)C)[C@@H](C)CC)C(=O)N[C@H]1CCCCNC(=O)C[C@@H](C(=O)N[C@@H](CCC(N)=O)C(N)=O)NC(=O)[C@H](CCC(N)=O)NC(=O)[C@H](CC(C)C)NC(=O)[C@H](CC(=O)O)NC1=O
notes: Synthetic, NΔ20 CΔ7; Best single lactamised peptide; also called cyclised form of 22/23
- fold lower IC50 than 11 [4]: 1.6 fold
- heterodimer ΔTm against parent sequence 11 [5]: ~8 ° C.
- heterodimer ΔTm from lactamisation (23 against linear 22) [5]: ~9 ° C.
- IC50 CD [6]: 52.7 µM
- Tm (° C.) of peptide-c-Jun heterodimer [7]: 65 ° C.
- -TΔS [8]: 14 kcal/mol
- Kd [8]: 0.0866 µM
- Stoichiometry, n [8]: 0.97
- ΔG [8]: -9.66 kcal/mol
- ΔH [8]: -23.6 kcal/mol

Molecule: EAEELVVEEDVLEEEIEQLEERNYALRAEICNLSCQ-NH2 (linker 31-35 via mXylylene; not fully specified) [HingeW variant meta DBMBW, cyclised]
- IC50 (µM), CD [9]: 61.5 µM

Molecule: EAEELVVEEDVLEEEIEQLEERNYALRSEICSLQCQ-NH2 (linker 31-35 via mXylylene; not fully specified) [HingeW variant 0W, cyclised]
- IC50 (µM), CD [9]: 77.6 µM

B2: TRE duplex (dsDNA)
DNA 1: GTCAGTCAGTGACTCAATCGGTCA
DNA 2: TGACCGATTGAGTCACTGACTGAC
- binding result [10]: no binding
- binding result [11]: no binding

B3: cJun bZIP (protein)
chain: T2 chain
- Tm (° C.) (CD): 39.8 ° C.

B4: FosW (peptide)
peptide: MASLDELQAEIEQLEERNYALRKEIEDLQKQLEKLGAPHHHHHH
modifications: not fully specified
notes: Recombinant, capped and C-terminally 6xHis-tagged; Lacks the acidic extension
- IC50, CD antagonism of cJun/TRE DNA (peak at ~281 nM) [4]: 120 µM
- heterodimer Tm [12]: 54 ° C.

Molecule: EAEELVVEEDVLEEEIEQLEERNYALRSEICSLQCQ-NH2 (not fully specified; cysteine pairing not given here) [HingeW variant 0W, linear]
- IC50 (µM), CD [9]: 86.7 µM

Molecule: EAEELVVEEDVLEEEIEQLEERNYALRAEICNLSCQ-NH2 (not fully specified; cysteine pairing not given here) [HingeW variant meta DBMBW, linear]
- IC50 (µM), CD [9]: 91.1 µM

B5: A-FosW (peptide)
peptide: T3 chain with V26E, V27Q, E29L, V31E, E33Q, E34A
notes: Recombinant, capped and C-terminally 6xHis-tagged; also called rationally designed A-FosW template; parent peptide
- increase in α-helicity relative to the average of the two component spectra [13]: 39%
- IC50, CD antagonism of cJun/TRE DNA (peak at ~281 nM) [4]: 16 µM
- IC50, EMSA of free TRE DNA band [4]: 12.1 µM
- TBS assay colony numbers relative to TRE-mDHFR only [4]: 60%
- effect on TRE-mDHFR transcriptional block / colony numbers [2]: restore cell survival
- interaction with TRE DNA [14]: no interaction
- Tm (° C.) (CD) [15]: 69.9 ° C.
- ΔTm from component average (CD) [15]: 27.5 ° C.
- Kd [16]: 0.0883 µM
- TΔS (ITC) [16]: -26.9 kcal/mol
- ΔG (ITC) [16]: -9.56 kcal/mol
- ΔH (ITC) [16]: -36.5 kcal/mol
- Tm (° C.) (CD) [17]: 45.1 ° C.
- dimer exchange [18]: no dimer exchange had occurred
- Fraction helicity at 20° C. (CD) ([3]; heterodimer with c-Jun, equimolar, 10 μM total): 38.7%
- temperature of smaller initial transition (double transition) ([3]; heterodimer with cJun): ~30 °C
- Tm (° C.) (CD) [3]: 69.9 °C
- ΔTm from component average (CD) ([3]; heterodimer with cJun vs average of component profiles): 27.5 °C
- Fraction helicity at 20° C. (CD) ([19]; peptide alone): 40.1%
- Tm (° C.) (CD) ([19]; peptide alone (homodimer)): 45.1 °C
